Where no end group is shown, it is not given here.

Two molecules from PMC6764986 (2019) can be followed below.

The target of one experiment is NbALFAPE. In words: SPR; ligand TST-NEDD8-ALFA. Background: Surface plasmon resonance follows binding to a sensor surface in real time, without labels.
In experiment [1] the target is T1, ALFA-tagged target immobilized for SPR (TST-NEDD8-ALFA or GFP-ALFA) (synthetic construct, not fully specified).
T1 chain: SRLEEELRRRLTE
The experiment is described as follows: SPR; ligand GFP-ALFA.

As a reminder, the Kd is the equilibrium constant for the complex coming apart. Higher therefore signals a looser complex. In general, koff refers to the first-order rate constant of dissociation. Read a high koff as a short-lived complex. In the experiment with NbALFAPE, SRLEEELRRRLTE (other) [ALFA-tagged target immobilized for SPR (TST-NEDD8-ALFA or GFP-ALFA)] yielded a Kd of 11 nM and a koff of 0.0029 s⁻¹.

B1: NbALFA (non-tagged) (VHH)
VHH: EVQLQESGGGLVQPGGSLRLSCTASGVTISALNAMAMGWYRQAPGERRVMVAAVSERGNAMYRESVQGRFTVTRDFTNKMVSLQMDNLKPEDTAVYYCHVLEDRVDSFHDYWGQGTQVTVSS
Consider B1, for which the koff in experiment [1] is 9.4e-06 s⁻¹.
